The results in this text go back to article PMC5714172.

In this assay the target is MBP-Hsmar1 transposase (human). Nature of the assay: SEC; Superdex 200 10/300 GL, GF buffer (25 mM HEPES pH 7.5, 200 mM NaCl, 2 mM DTT, 5 mM EDTA, 0.1% Triton X-100 reduced); ^MBPHsmar1 after increasing Factor Xa proteolysis (1 ug protease per 50 ug fusion protein). For orientation: In gel filtration, larger molecules generally elute earlier.

By stoichiometry N is commonly meant the number of molecules, sites or subunits per partner or assembly.

Substance MBP-Hsmar1 transposase (enzyme) came in with a stoichiometry N of 2.
